# B1: Smad2-W422A: W422A mutant of full-length Smad2; specific PI(4,5)P2 binding-compromised (protein)
# chain: MSSILPFTPPVVKRLLGWKKSAGGSGGAGGGEQNGQEEKWCEKAVKSLVKKLKKTGRLDELEKAITTQNCNTKCVTIPSTCSEIWGLSTANTVDQWDTTGLYSFSEQTRSLDGRLQVSHRKGLPHVIYCRLWRWPDLHSHHELKAIENCEYAFNLKKDEVCVNPYHYQRVETPVLPPVLVPRHTEILTELPPLDDYTHSIPENTNFPAGIEPQSNYIPETPPPGYISEDGETSDQQLNQSMDTGSPAELSPTTLSPVNHSLDLQPVTYSEPAFWCSIAYYELNQRVGETFHASQPSLTVDGFTDPSNSERFCLGLLSNVNRNATVEMTRRHIGRGVRLYYIGGEVFAECLSDSAIFVQSPNCNQRYGWHPATVCKIPPGCNLKIFNNQEFAALLAQSVNQGFEAVYQLTRMCTIRMSFVKGAGAEYRRQTVTSTPCWIELHLNGPLQWLDKVLTQMGSPSVRCSSMS
# modifications: left off: His6, N-terminal, state not stated
# B2: Smad2- R427A/R428A: double mutant of full-length Smad2; PI(4,5)P2 and TβRI binding-compromised (protein)
# chain: MSSILPFTPPVVKRLLGWKKSAGGSGGAGGGEQNGQEEKWCEKAVKSLVKKLKKTGRLDELEKAITTQNCNTKCVTIPSTCSEIWGLSTANTVDQWDTTGLYSFSEQTRSLDGRLQVSHRKGLPHVIYCRLWRWPDLHSHHELKAIENCEYAFNLKKDEVCVNPYHYQRVETPVLPPVLVPRHTEILTELPPLDDYTHSIPENTNFPAGIEPQSNYIPETPPPGYISEDGETSDQQLNQSMDTGSPAELSPTTLSPVNHSLDLQPVTYSEPAFWCSIAYYELNQRVGETFHASQPSLTVDGFTDPSNSERFCLGLLSNVNRNATVEMTRRHIGRGVRLYYIGGEVFAECLSDSAIFVQSPNCNQRYGWHPATVCKIPPGCNLKIFNNQEFAALLAQSVNQGFEAVYQLTRMCTIRMSFVKGWGAEYAAQTVTSTPCWIELHLNGPLQWLDKVLTQMGSPSVRCSSMS
# modifications: left off: His6, N-terminal, state not stated
# B3: Smad2-K420A: K420A mutant of full-length Smad2; predominantly TβRI binding-compromised (protein)
# chain: MSSILPFTPPVVKRLLGWKKSAGGSGGAGGGEQNGQEEKWCEKAVKSLVKKLKKTGRLDELEKAITTQNCNTKCVTIPSTCSEIWGLSTANTVDQWDTTGLYSFSEQTRSLDGRLQVSHRKGLPHVIYCRLWRWPDLHSHHELKAIENCEYAFNLKKDEVCVNPYHYQRVETPVLPPVLVPRHTEILTELPPLDDYTHSIPENTNFPAGIEPQSNYIPETPPPGYISEDGETSDQQLNQSMDTGSPAELSPTTLSPVNHSLDLQPVTYSEPAFWCSIAYYELNQRVGETFHASQPSLTVDGFTDPSNSERFCLGLLSNVNRNATVEMTRRHIGRGVRLYYIGGEVFAECLSDSAIFVQSPNCNQRYGWHPATVCKIPPGCNLKIFNNQEFAALLAQSVNQGFEAVYQLTRMCTIRMSFVAGWGAEYRRQTVTSTPCWIELHLNGPLQWLDKVLTQMGSPSVRCSSMS
# modifications: left off: His6, N-terminal, state not stated
# B4: Smad2-Y426A: Y426A mutant of full-length Smad2; specific PI(4,5)P2 binding-compromised (protein)
# chain: MSSILPFTPPVVKRLLGWKKSAGGSGGAGGGEQNGQEEKWCEKAVKSLVKKLKKTGRLDELEKAITTQNCNTKCVTIPSTCSEIWGLSTANTVDQWDTTGLYSFSEQTRSLDGRLQVSHRKGLPHVIYCRLWRWPDLHSHHELKAIENCEYAFNLKKDEVCVNPYHYQRVETPVLPPVLVPRHTEILTELPPLDDYTHSIPENTNFPAGIEPQSNYIPETPPPGYISEDGETSDQQLNQSMDTGSPAELSPTTLSPVNHSLDLQPVTYSEPAFWCSIAYYELNQRVGETFHASQPSLTVDGFTDPSNSERFCLGLLSNVNRNATVEMTRRHIGRGVRLYYIGGEVFAECLSDSAIFVQSPNCNQRYGWHPATVCKIPPGCNLKIFNNQEFAALLAQSVNQGFEAVYQLTRMCTIRMSFVKGWGAEARRQTVTSTPCWIELHLNGPLQWLDKVLTQMGSPSVRCSSMS
# modifications: left off: His6, N-terminal, state not stated
# B5: Smad2 WT: bacterially expressed full-length Smad2 wild-type (protein)
# chain: MSSILPFTPPVVKRLLGWKKSAGGSGGAGGGEQNGQEEKWCEKAVKSLVKKLKKTGRLDELEKAITTQNCNTKCVTIPSTCSEIWGLSTANTVDQWDTTGLYSFSEQTRSLDGRLQVSHRKGLPHVIYCRLWRWPDLHSHHELKAIENCEYAFNLKKDEVCVNPYHYQRVETPVLPPVLVPRHTEILTELPPLDDYTHSIPENTNFPAGIEPQSNYIPETPPPGYISEDGETSDQQLNQSMDTGSPAELSPTTLSPVNHSLDLQPVTYSEPAFWCSIAYYELNQRVGETFHASQPSLTVDGFTDPSNSERFCLGLLSNVNRNATVEMTRRHIGRGVRLYYIGGEVFAECLSDSAIFVQSPNCNQRYGWHPATVCKIPPGCNLKIFNNQEFAALLAQSVNQGFEAVYQLTRMCTIRMSFVKGWGAEYRRQTVTSTPCWIELHLNGPLQWLDKVLTQMGSPSVRCSSMS
# modifications: left off: His6, N-terminal, state not stated
# notes: bacterially expressed full-length Smad2 wild-type
# B6: Smad2-E425K: charge-reversal mutant of full-length Smad2; PI(4,5)P2 and TβRI binding-enhanced (protein)
# chain: MSSILPFTPPVVKRLLGWKKSAGGSGGAGGGEQNGQEEKWCEKAVKSLVKKLKKTGRLDELEKAITTQNCNTKCVTIPSTCSEIWGLSTANTVDQWDTTGLYSFSEQTRSLDGRLQVSHRKGLPHVIYCRLWRWPDLHSHHELKAIENCEYAFNLKKDEVCVNPYHYQRVETPVLPPVLVPRHTEILTELPPLDDYTHSIPENTNFPAGIEPQSNYIPETPPPGYISEDGETSDQQLNQSMDTGSPAELSPTTLSPVNHSLDLQPVTYSEPAFWCSIAYYELNQRVGETFHASQPSLTVDGFTDPSNSERFCLGLLSNVNRNATVEMTRRHIGRGVRLYYIGGEVFAECLSDSAIFVQSPNCNQRYGWHPATVCKIPPGCNLKIFNNQEFAALLAQSVNQGFEAVYQLTRMCTIRMSFVKGWGAKYRRQTVTSTPCWIELHLNGPLQWLDKVLTQMGSPSVRCSSMS
# modifications: left off: His6, N-terminal, state not stated
# Test system: TβRI L45 loop region peptide (F-Ahx-ADNKDNGT)
# Experiment: Fluorescence anisotropy binding to TβRI L45 peptide
# Settings: for Kd: 20 mM Tris, pH 7.9, 160 mM NaCl, 10-min incubation, average ±S.D., n = 3
# Excerpt: However, this tentative assignment has been confirmed neither by a high-resolution structure of the Smad2-TβRI complex nor by a quantitative and systematic binding study, leaving uncertainty about the exact nature of the Smad2-TβRI-binding interface. Since the L3 loop is a part of the newly identified PI(4,5)P2-binding site, we checked if these PI(4,5)P2-binding residues are also involved in the Smad2-TβRI interaction using two fluorescein-labeled synthetic peptides derived from the GS region (i.e., GS peptide: fluorescein-aminohexanoyl (F-Ahx)-YDMTTpSGpSGpSGLPLL) and the L45 loop (i.e., L45 peptide: F-Ahx-ADNKDNGT), respectively. In particular, the GS peptide represents the GS motif triply phosphorylated by TβRII. We then measured binding to Smad2 WT and mutants to these peptides by fluorescence anisotropy according to our established protocol ([21]). […] We thus primarily used the GS peptide to assess the effects of mutations on the Smad2-TβRI interaction. […] They also yielded distinct structural variants for further functional studies. Specifically, W422A and Y426A could serve as specific PI(4,5)P2 binding-compromised mutants and K420A as a predominantly TβRI binding-compromised mutant. R427A/R428A could also serve as a PI(4,5)P2 and TβRI binding-compromised mutant, whereas E425K as a PI(4,5)P2 and TβRI binding-enhanced mutant.
# Figure 3 Affinity of Smad2 WT and mutants for TβRI-derived peptides determined by fluorescence anisotropy.A, binding of Smad2 WT (black), W422A (red), Y420A (cyan), R427A/R428A (green), K420A (blue), and E425K (orange) to the GS peptide (F-Ahx-YDMTTpSGpSGpSGLPLL). […] B, binding of Smad2 WT (black), W422A (red), Y420A (cyan), R427A/R428A (green), K420A (blue), and E425K (orange) to the L45 loop peptide (F-Ahx-DNKDNGT). C, effects of 50 μM POPC/POPS/PI(4,5)P2 (77:20:3) LUVs on binding of Smad2 to the GS peptide. The presence of vesicles (orange) raises the Kd value from 20 ± 6 to 60 ± 7 nM. The peptide concentration was fixed at 2.5 nM, and the Smad2 concentration was varied from 0 to 150 μM. The experimentally observed anisotropy (A) values were normalized (Anorm) using the equation: Anorm = (A − Amin)/(Amax − Amin) where Amax and Amin are maximal and minimal A values, respectively, for each measurement. The plots of Anormversus [Smad2] were analyzed by the nonlinear least-squares analysis using the equation: Anorm = 1/(1 + Kd/[Smad2]).
# The fluorescein-6-aminohexanoyl (F-Ahx)-labeled TβRI GS region peptide (F-Ahx-YDMTTpSGpSGpSGLPLL) was dissolved in dimethyl sulfoxide to yield 1 mg/ml stock solution, F-Ahx-labeled TβRI L45 loop region peptide (F-Ahx-ADNKDNGT) was dissolved in a 3:1 mixture of water and acetonitrile to yield 2.5 mg/ml stock solution. Both peptide solutions were diluted to 1 to 10 μM with 20 mM Tris buffer, pH 7.9, containing 160 mM NaCl for binding studies. In total, 300 μl of the Smad2 (WT or mutant) solution (0–250 μM) was added to a series of 1.5 ml microcentrifuge containing the peptide solution (2.5 μM). After 10-min incubation in the dark, the mixture was transferred to a quartz cuvette with 2-mm path length and fluorescence anisotropy (r) was measured with excitation and emission wavelengths set at 485 and 535 nm, respectively, using Horiba Flurolog-3 spectrofluorometer. Since Po >> Pepo under our conditions, the Kd for the Smad2-peptide binding was determined by the nonlinear least-squares analysis of the binding isotherm using the Equation 1:(1) Pepbound/Pep0=Δr/Δrmax=1/1+kd/P0 where Pepbound, Pep0, and P0 indicate the concentration of bound peptide, total peptide, and total Smad2, respectively, and Δr and Δrmax are the anisotropy change for each P0 and the maximal Δr, respectively.
molecule,measurement,value
B1,L45 peptide affinity relative to WT,WT-like affinity
same,Kd,67 ± 6 µM
B2,L45 peptide affinity relative to WT,slightly lower affinity
same,Kd,75 ± 11 µM
B3,L45 peptide affinity relative to WT,lowest affinity
same,Kd,100 ± 16 µM
B4,L45 peptide affinity relative to WT,WT-like affinity
same,Kd,70 ± 7 µM
B5,Kd,66 ± 4 µM
B6,L45 peptide affinity relative to WT,slightly higher affinity
same,Kd,55 ± 3 µM

# From paper PMC8567202, “Phosphoinositide-binding activity of Smad2 is essential for its function in TGF-β signaling” (The Journal of Biological Chemistry, 2021)
